Drawing on US20150038682A1, this text covers viability of Ramos cells for 1 molecule.

The target in the test is death receptor 4 (DR4) on Ramos cells (human) (UniProt O00220). The test is described as follows: cell-based or functional assay.

B1: HuYON007 IgG1 (antibody, V domains shown)
VH: QVTLRESGPALVKPTQTLTLTCTFSGFSLSTSGMGVSWIRQPPGKALEWLAHIYWDDDKRYNPSLKSRLTISKDTSKNQVVLTMTNMDPVDTATYYCTRRGEYGNFDYWGQGTLVTVSS
VL: QTVVTQEPSFSVSPGGTVTLTCRSSSGAVTTSNFANWVQQTPGQAPRGLIGGTNNRAPGVPDRFSGSLLGNKAALTITGAQADDESDYYCALWYSNHWVFGGGTKLTVL
The molecule B1 had a viability of Ramos cells at 6.2 ng/ml antibody of 100% and a viability of Ramos cells at 111 ng/ml antibody (alamar Blue, overnight) of 78.3%.
